Article PMC11647504, “The GPCR adaptor protein Norbin controls the trafficking of C5aR1 and CXCR4 in mouse neutrophils” (The Journal of Biological Chemistry, 2024)

T1: Recombinant His-Norbin (His-tagged rat Norbin protein) (rat, UniProt O35095 1-729)
T1 construct: Norbin (Neurochondrin), rat, full-length construct; 98% identical to human Norbin; also called Neurochondrin; NCDN; source: M15 [pREP4] bacteria, inclusion bodies solubilized in 6 M guanidine hydrochloride, renatured by dialysis, purified; not shown: 6xHis, C-terminal, kept
T1 sequence (looked up): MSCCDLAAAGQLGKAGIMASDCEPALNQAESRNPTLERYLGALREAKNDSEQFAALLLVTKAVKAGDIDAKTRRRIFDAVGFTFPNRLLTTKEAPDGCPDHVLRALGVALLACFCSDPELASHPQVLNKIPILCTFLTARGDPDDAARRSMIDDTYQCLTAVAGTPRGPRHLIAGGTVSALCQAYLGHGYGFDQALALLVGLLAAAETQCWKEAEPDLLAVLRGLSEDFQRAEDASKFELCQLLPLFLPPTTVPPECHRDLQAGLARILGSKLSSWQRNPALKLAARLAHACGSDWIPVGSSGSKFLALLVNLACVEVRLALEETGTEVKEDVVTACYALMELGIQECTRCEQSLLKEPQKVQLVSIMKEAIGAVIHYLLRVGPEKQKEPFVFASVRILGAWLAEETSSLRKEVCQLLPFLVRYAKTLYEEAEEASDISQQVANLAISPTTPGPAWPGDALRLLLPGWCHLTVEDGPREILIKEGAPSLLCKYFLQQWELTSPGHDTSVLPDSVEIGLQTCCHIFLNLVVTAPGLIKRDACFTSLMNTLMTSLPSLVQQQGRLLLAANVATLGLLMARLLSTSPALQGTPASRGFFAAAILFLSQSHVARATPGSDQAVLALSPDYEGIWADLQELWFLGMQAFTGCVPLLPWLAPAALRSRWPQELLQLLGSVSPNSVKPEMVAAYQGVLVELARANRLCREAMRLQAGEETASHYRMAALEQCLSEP

B1: GST-tagged C-terminal tail of MCH1 (melanin-concentrating hormone receptor 1) (domain or fragment)
chain: ANSCLNPFVYIVLCETFRKRLVLSVKPAAQGQLRAVSNAQTADEERTESKGT
notes: In pGEX4T3; Positive control; also called GST-MCH1
B2: GST-tagged C-terminal tail of human C5aR1 (domain or fragment)
chain: INCCINPIIYVVAGQGFQGRLRKSLPSLLRNVLTEESVVRESKSFTRSTVDTMAQKTQAV
notes: In pGEX4T3, cloned with BamH1 and Xho1; also called GST-C5aR1
B3: GST-tagged C-terminal tail of human CXCR4 (domain or fragment)
chain: FHCCLNPILYAFLGAKFKTSAQHALTSVSRGSSLKILSKGKRGGHSSVSTESESSSFHSS
notes: In pGEX6P1, cloned with BamH1 and Xho1; also called GST-CXCR4

molecular target: T1, Recombinant His-Norbin (His-tagged rat …); assay: pull-down; GST-tagged GPCR C-terminal tails (or GST) from bacterial lysates bound to glutathione Sepharose, washed twice in PBS, 2% Triton X-100, 5 mM DTT, incubated with 50 μg purified recombinant His-Norbin for 3 h at 4 °C, washed 3 x in PBS, 1% Triton X-100; western blot with His antibody; conditions: both partners purified

Binding result, binds:
B1
B2
B3
